Measured values: patent US11371056B2, “HPPD variants and methods of use” (BASF Agricultural Solutions Seed US LLC, priority 2017, dated 2022)

Test system: Pseudomonas fluorescens HPPD polypeptide (wild-type and mutants)
Assay: Coupled HPPD activity assay: turnover and residual turnover in crude HPPD polypeptide extracts with and without Cmpd. 1
Assay type: biochemical
Details: for Residual turnover [%]: 100 μM Cmpd. 1, normalised to turnover without inhibitor; for Turnover: absence of Cmpd. 1; for Turnover / Residual turnover: changes in absorbance (OD) at 320 nm in the coupled assay, 30 min; for Residual turnover: presence of 100 μM Cmpd. 1
Description: For the generation of crude HPPD polypeptide extract in micro titer plates (MTP) for the determination of residual activity in inhibition assays, cells were grown in 40 or 150 μl LB medium containing 1% Glucose (Merck, Darmstadt, Germany) and 100 μg/ml ampicillin in a standard 96 well plate (Thermo Fisher Scientific, Waltham, USA) incubated for about 18 h in a humidity incubator at 37° C. 30 μl of this starter culture were added to 600 μl LB medium containing 100 μg/ml ampicillin and 150 mM Hepes (Merck, Darmstadt, Germany) as inoculum for the expression culture in 96 well plates (2 ml deep wells; HJ Bioanalytik, Erkelenz, Germany). The plates were sealed by an aluminium foil, and cells were incubated for 5 h at 37° C. on a plate shaker at 750 rpm. The expression was induced by addition of IPTG in a final concentration of 1 mM followed by further sealed incubation for about 18 h at 30° C. on a plate shaker at 750 rpm.
Cells were harvested by centrifugation at 4° C., 2500 g for 15 min discarding the supernatant. Cell pellets were stored at −80° C. and lysed in 250 μl 1× BugBuster® (Merck, Darmstadt, Germany) in 140 mM Tris (pH 7.8), with 1:25000 diluted BNase® (Qiagen, Hilden, Germany) by incubation of the resuspended cells for 30 min at 4° C. and 1000 rpm. Lysates were clarified by centrifugation for 15 min at 4° C., 2500 g, and 150 μl supernatant were transferred in standard 96 well plate (Thermo Fisher Scientific, Waltham, USA) for subsequent testing in quadruplets.
The activity of HPPD polypeptides was determined in absence or presence of HPPD inhibitors using the coupled HPPD activity assay (FIG. 1).
For the determination of the residual activity, the apparent kinetic constant (kapp) of the determined substrate conversion was measured as kinetic changes in absorbance (OD) at 320 nm in a coupled assay, in that homogentisate (HGA) formed by HPPD from HPP is directly converted into the well absorbing molecule maleylacetoacetate (MAA) by a second enzyme homogentisate dioxygenase (HGD), applied in excess uniformly in all assays (see FIG. 1). The measurements were performed in 384 micro titer plates (Greiner Bio-One GmbH, Frickenhausen, Germany) by plate readers (Tecan infinite M1000 or M1000PRO, Tecan, Männedorf, Switzerland). The kcat/kM ratio of an enzymatic activity is proportional to the apparent kinetic constant kapp and is proportional to kcat/kM*[E] ([E]=enzyme concentration). […] As both kapp measurements in the presence and absence of inhibitor were performed by use of the identical enzyme sample, crude or purified, and thereby at the same enzyme concentration, the enzyme concentration eliminates from the calculation of residual activity and the ratio of both kapp directly indicates the change of kM due to the inhibition.
The assay solution used for determination of residual activities in raw HPPD polypeptide samples was composed by 200 mM sodium phosphate (Merck, Darmstadt, Germany, pH 7.0), 5 mM MgCl2 (Merck, Darmstadt, Germany), 20 mM ascorbate (Sigma-Aldrich, St. Louis, USA), 1 mM DTT (Sigma-Aldrich, St. Louis, USA), 0.1% Pluronic F-68 (Sigma-Aldrich, St. Louis, USA), 40 μM FeSO4 (Sigma-Aldrich, St. […] Louis, USA) and equilibrated for 20 min on ice.

| Molecule | Residual turnover [%] | Turnover | Residual turnover |
| --- | --- | --- | --- |
| SEQ ID NO:13 (protein, mutant HPPD polypeptide) MADLYENPMGLMGFEFIEFASPTPGTLEPIFEIMGFTKVATHRSKNVHLYRQGEINLILNNEPNSIASYFAAEHGPSVCGMAFRVKDSQKAYNRALELGAQPIHIDTGPMELNLPAIKGIGGAPLYLIDRFGEGSSIYDIDFVYLEGVERNPVGAGLKVIDHLTHNVYRGRMVYWANFYEKLFNFREARYFDIKGEYTGLTSKAMSAPDGMIRIPLNEESSKGAGQIEEFLMQFNGEGIQHVAFLTDDLVKTWDALKKIGMRFMTAPGDEYYEMLEGRLPDHGEPVDQLQARGILLDGSSVEGDKRLLLQIFSETLMGPVFFEFIQRKGDDGFGPDSFKVLFEQIERDQVRRGVLTAD | 38 | 0.168 | 0.064 |
| SEQ ID NO:17 (protein, mutant HPPD polypeptide) MADLYENPMGLMGFEFIEFASPTPGTLEPIFEIMGFTKVATHRSKNVHLYRQGEINLILNNEPNSIASYFAAEHGPSVCGMAFRVKDSQKAYNRALELGAQPIHIDTGPMELNLPAIKGIGGAPLYLIDRFGEGSSIYDIDFVYLEGVERNPVGAGLKVIDHLTHNVYRGRMVYWANFYEKLFNFREARYFDIKGEYTGLTSKAMSAPDGMIRIPLNEESSKGAGQIEEFLMQFNGEGIQHVAFLTDDLVKTWDALKKIGMRFMTAPGDEYYEMLEGRLPDHGEPVDQLQARGILLDGSSVEGDKRLLLQIFSETLMGPVFFEFIQRKGDDGFGPDSFKVLFESMERDQVRRGVLTAD | 41 | 0.184 | 0.075 |
| SEQ ID NO:19 (protein, mutant HPPD polypeptide) MADLYENPMGLMGFEFIEFASPTPGTLEPIFEIMGFTKVATHRSKNVHLYRQGEINLILNNEPNSIASYFAAEHGPSVCGMAFRVKDSQKAYNRALELGAQPIHIDTGPMELNLPAIKGIGGAPLYLIDRFGEGSSIYDIDFVYLEGVERNPVGAGLKVIDHLTHNVYRGRMVYWANFYEKLFNFREARYFDIKGEYTGLTSKAMSAPDGMIRIPLNEESSKGAGQIEEFLMQFNGEGIQHVAFLTDDLVKTWDALKKIGMRFMTAPGDEYYEMLEGRLPDHGEPVDQLQARGILLDGSSVEGDKRLLLQIFSEQLMGPVFFEFIQRKGDDGFGPDSFKVLFEQMERDQVRRGVLTAD | 40 | 0.218 | 0.087 |
| SEQ ID NO:21 (protein, mutant HPPD polypeptide) MADLYENPMGLMGFEFIEFASPTPGTLEPIFEIMGFTKVATHRSKNVHLYRQGEINLILNNEPNSIASYFAAEHGPSVCGMAFRVKDSQKAYNRALELGAQPIHIDTGPMELNLPAIKGIGGAPLYLIDRFGEGSSIYDIDFVYLEGVERNPVGAGLKVIDHLTHNVYRGRMVYWANFYEKLFNFREARYFDIKGEYTGLTSKAMSAPDGMIRIPLNEESSKGAGQIEEFLMQFNGEGIQHVAFLTDDLVKTWDALKKIGMRFMTAPGDEYYEMLEGRLPDHGEPVDQLQARGILLDGSSVEGDKRLLLQIFSETLMGPVFFEFIQRKGDDGFGPDSFKVLFEQMERDQVRRGVLTAD | 38 | 0.214 | 0.082 |
| SEQ ID NO:14 (protein, mutant HPPD polypeptide) MADLYENPMGLMGFEFIEFASPTPGTLEPIFEIMGFTKVATHRSKNVHLYRQGEINLILNNEPNSIASYFAAEHGPSVCGMAFRVKDSQKAYNRALELGAQPIHIDTGPMELNLPAIKGIGGAPLYLIDRFGEGSSIYDIDFVYLEGVERNPVGAGLKVIDHLTHNVYRGRMVYWANFYEKLFNFREARYFDIKGEYTGLTSKAMSAPDGMIRIPLNEESSKGAGQIEEFLMQFNGEGIQHVAFLTDDLVKTWDALKKIGMRFMTAPGDEYYEMLEGRLPDHGEPVDQLQARGILLDGSSVEGDKRLLLQIFSEKLMGPVFFEFIQRKGDDGFGPDSFKVLFESMERDQVRRGVLTAD | 40 | 0.18 | 0.072 |
| SEQ ID NO:16 (protein, mutant HPPD polypeptide) MADLYENPMGLMGFEFIEFASPTPGTLEPIFEIMGFTKVATHRSKNVHLYRQGEINLILNNEPNSIASYFAAEHGPSVCGMAFRVKDSQKAYNRALELGAQPIHIDTGPMELNLPAIKGIGGAPLYLIDRFGEGSSIYDIDFVYLEGVERNPVGAGLKVIDHLTHNVYRGRMVYWANFYEKLFNFREARYFDIKGEYTGLTSKAMSAPDGMIRIPLNEESSKGAGQIEEFLMQFNGEGIQHVAFLTDDLVKTWDALKKIGMRFMTAPGDEYYEMLEGRLPDHGEPVDQLQARGILLDGSSVEGDKRLLLQIFSERLMGPVFFEFIQRKGDDGFGPDSFKVLFESMERDQVRRGVLTAD | 46 | 0.181 | 0.083 |
| SEQ ID NO:20 (protein, mutant HPPD polypeptide) MADLYENPMGLMGFEFIEFASPTPGTLEPIFEIMGFTKVATHRSKNVHLYRQGEINLILNNEPNSIASYFAAEHGPSVCGMAFRVKDSQKAYNRALELGAQPIHIDTGPMELNLPAIKGIGGAPLYLIDRFGEGSSIYDIDFVYLEGVERNPVGAGLKVIDHLTHNVYRGRMVYWANFYEKLFNFREARYFDIKGEYTGLTSKAMSAPDGMIRIPLNEESSKGAGQIEEFLMQFNGEGIQHVAFLTDDLVKTWDALKKIGMRFMTAPGDEYYEMLEGRLPDHGEPVDQLQARGILLDGSSVEGDKRLLLQIFSERLMGPVFFEFIQRKGDDGFGPDSFKVLFEQMERDQVRRGVLTAD | 49 | 0.166 | 0.082 |
| SEQ ID NO:15 (protein, mutant HPPD polypeptide) MADLYENPMGLMGFEFIEFASPTPGTLEPIFEIMGFTKVATHRSKNVHLYRQGEINLILNNEPNSIASYFAAEHGPSVCGMAFRVKDSQKAYNRALELGAQPIHIDTGPMELNLPAIKGIGGAPLYLIDRFGEGSSIYDIDFVYLEGVERNPVGAGLKVIDHLTHNVYRGRMVYWANFYEKLFNFREARYFDIKGEYTGLTSKAMSAPDGMIRIPLNEESSKGAGQIEEFLMQFNGEGIQHVAFLTDDLVKTWDALKKIGMRFMTAPGDEYYEMLEGRLPDHGEPVDQLQARGILLDGSSVEGDKRLLLQIFSEQLMGPVFFEFIQRKGDDGFGPDSFKVLFESMERDQVRRGVLTAD | 39 | 0.161 | 0.062 |
| SEQ ID NO:18 (protein, mutant HPPD polypeptide) MADLYENPMGLMGFEFIEFASPTPGTLEPIFEIMGFTKVATHRSKNVHLYRQGEINLILNNEPNSIASYFAAEHGPSVCGMAFRVKDSQKAYNRALELGAQPIHIDTGPMELNLPAIKGIGGAPLYLIDRFGEGSSIYDIDFVYLEGVERNPVGAGLKVIDHLTHNVYRGRMVYWANFYEKLFNFREARYFDIKGEYTGLTSKAMSAPDGMIRIPLNEESSKGAGQIEEFLMQFNGEGIQHVAFLTDDLVKTWDALKKIGMRFMTAPGDEYYEMLEGRLPDHGEPVDQLQARGILLDGSSVEGDKRLLLQIFSEKLMGPVFFEFIQRKGDDGFGPDSFKVLFEQMERDQVRRGVLTAD | 41 | 0.221 | 0.091 |
